In patent US20140105905A1 (Amgen, published 2014):

Legend:
[1] = target: T1, recombinant human Interleukin-8 (human, UniProt P10145 28-99); assay: KinExA "Kinetics, Direct" method
T1 construct: also called rhIL-8; IL-8
T1 sequence (looked up): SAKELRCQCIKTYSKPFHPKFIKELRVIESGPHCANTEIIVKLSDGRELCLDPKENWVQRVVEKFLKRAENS
Excerpt: (§1) For measuring the association rate constant using KinExA, the same rhIL-8-coupled beads were used as the probe and the “Kinetics, Direct” method was used. The “Kinetics, Direct” experiments by KinExA are identical to KinExA equilibrium assays with respect to bead column height, antibody capture, antibody concentration and antibody detection. Briefly, the mAb was mixed with an amount of antigen that bound approximately 80% of the mAb in the equilibrium experiments and the free antibody present in the sample was probed repeatedly, pre-equilibrium. […] The volumes and flow rates of the antigen-mAb mixtures and the Cy5-labeled secondary antibody were varied depending upon the mAb tested. Data was analyzed utilizing the KinExA analysis software that comes with the KinExA 3000 instrument. This software graphically represents the decrease in binding signals over time, and fits the collected data points to an exact solution of the kinetic differential equations for binding. From this curve, an optimal solution for the kₒₙ is determined. The koff is indirectly calculated from solutions for the kₒₙ and Kd.
(§2) The on-rate measurement by KinExA is not limited by the mAb concentration used in the experiment. […] The concentration of mAb used for on-rate experiments was the same as those used in equilibrium binding experiments. An amount of IL-8 that bound 80% of the mAb in equilibrium binding experiments was mixed with the mAb. The amount of free mAb left in the mixture was measured in KinExA by flowing 1 ml of the mixture repeatedly through rhIL-8 coupled to NHS-activated Sepharose beads and detected using 1 ml of 2.0 μg/ml of Cy5-labeled goat anti-human IgG Fcγ fragment-specific secondary antibody. The kₒₙ was measured using the KinExA software by the “Kinetic, Direct” method and the 95% confidence intervals are given as kₒₙ range. The koff for the mAb was calculated from the measured kₒₙ and Kd of the respective mAb.

[2] = target: T1, recombinant human Interleukin-8; assay: calculated from KinExA kon and Kd
Excerpt: as §1, §2

[3] = target: T1, recombinant human Interleukin-8; assay: KinExA equilibrium in solution, 36 h, mAb 20 pM
Method: The experiments with KinExA were performed using an automated flow immunoassay system, KinExA 3000 [Ohmura et al., Anal. Chem. 73:3392, 2001] in which rhIL-8-coupled beads served as the solid phase. […] Antigen/antibody complexes were incubated at RT for 36 h to 144 h to allow equilibrium to be reached. The mixture was drawn through the rhIL-8-coupled beads to accumulate unbound antibody. The captured anti-hIL-8 mAb is directly proportional to the remaining free binding sites and was detected using solutions containing Cy5-conjugated anti-human secondary antibody in sample buffer. The concentrations, volumes, and flow rates of the secondary antibody solutions were varied to optimize the signal to noise ratio in each experiment. The bound signals were converted into relative values as a proportion of control in the absence of rhIL-8. The equilibrium dissociation constant (Kd) was obtained from nonlinear regression analysis of the data using a one-site homogeneous binding model contained within the software [Blake et Al., Anal. Biochem. 272:123, 1999; Jones et al., Bioconjug Chem 13:408, 2002]. […]
A proportionate amount of free mAb present in the equilibrium mixture was measured by flowing 0.25 ml to 3 ml of the sample on rhIL-8 coupled to CNBr-activated Sepharose beads and detected using 1.0 ml of 1.7 μg/ml of Cy5-labeled goat anti-human IgG Fcγ fragment-specific secondary antibody. […]

[4] = target: T2, IL-8 peptide ELRCQCIKTYSK (human); assay: overlapping IL-8 peptides on a membrane; column "Recognized epitope"
T2 peptide: ELRCQCIKTYSK
Method: Briefly, overlapping IL-8 peptides, which were each two amino acids c-terminal to the previous peptide (as shown in FIG. 8) were prepared and attached to a membrane. Antibodies were then added and allowed to bind to the peptides.

[5] = target: T1, recombinant human Interleukin-8; assay: not named in this sentence (summary of the filing's own affinity results)
[6] = target: T1, recombinant human Interleukin-8; assay: KinExA equilibrium, optimized, n-curve analysis, mAb 0.68, 2.0 and 13.7 pM
Excerpt: The equilibrium dissociation constant (Kd) was obtained from nonlinear regression analysis of the data using a one-site homogeneous binding model contained within the software [Blake et Al., Anal. Biochem. 272:123, 1999; Jones et al., Bioconjug Chem 13:408, 2002]. The software calculates the Kd and determines the 95% confidence interval by fitting the data points to a theoretical Kd curve. The 95% confidence interval is given as Kd low and Kd high.
A proportionate amount of free mAb present in the equilibrium mixture was measured in KinExA under optimized conditions. For example, for the mixtures containing the low concentration of mAb, 18-36 ml of the sample was flown through rhIL-8 coupled to NHS-activated Sepharose beads and detected using 1-2 ml of 2.0 μg/ml of Cy5-labeled goat anti-human IgG Fcγ fragment-specific secondary antibody. The Kd was calculated using KinExA software by using the “n-curve analysis” selection.

[7] = target: T1, recombinant human Interleukin-8; assay: KinExA equilibrium, low mAb concentration experiments analyzed in single curves
Method: Antigen/antibody complexes were incubated at RT for 36 h to 144 h to allow equilibrium to be reached. The mixture was drawn through the rhIL-8-coupled beads to accumulate unbound antibody. The captured anti-hIL-8 mAb is directly proportional to the remaining free binding sites and was detected using solutions containing Cy5-conjugated anti-human secondary antibody in sample buffer. The concentrations, volumes, and flow rates of the secondary antibody solutions were varied to optimize the signal to noise ratio in each experiment. The bound signals were converted into relative values as a proportion of control in the absence of rhIL-8. The equilibrium dissociation constant (Kd) was obtained from nonlinear regression analysis of the data using a one-site homogeneous binding model contained within the software [Blake et Al., Anal. Biochem. 272:123, 1999; Jones et al., Bioconjug Chem 13:408, 2002]. […]
A proportionate amount of free mAb present in the equilibrium mixture was measured in KinExA under optimized conditions. For example, for the mixtures containing the low concentration of mAb, 18-36 ml of the sample was flown through rhIL-8 coupled to NHS-activated Sepharose beads and detected using 1-2 ml of 2.0 μg/ml of Cy5-labeled goat anti-human IgG Fcγ fragment-specific secondary antibody. […]

B1: anti-hIL-8 mAb 928 (antibody, human IgG2, V domains shown)
VH: QVQLVESGGGVVQPGRSLRLSCAASGFTFSSYGMLWVRQAPGKGLEWVADISYDGSNKYYADSVKGRFTISRDNSKNTLYLQMNSLRAEDTAVFYCARDRIAVADYWGQGTLVTVSS
VL: EIVLTQSPGTLSLSPGERATLSCRASQSVSSSFLAWYQQKPGQAPRLLIYGASSRATGIPDRFSGSGSGTDFILTISRLEPEDFAVYYCQQYDSSFTFGPGTKVDIK
[1]
  kon: 6e+06 M⁻¹ s⁻¹
[2]
  koff: 3.7e-06 s⁻¹
[3]
  Kd: 0.057 pM
[4]
  binding result: binds
[5]
  Kd: ~0.06 pM
[6]
  Kd: 0.613 pM
[7]
  Kd: 0.59 pM
